We go through 1 molecule from US7183376.

This experiment deals with human CD28 receptor on T cells (human, UniProt P10747 19-220). Put plainly: cell-based or functional assay.

B1: Round 2 CD28BP-15 (ligand)
chain: ITPKSVTKRVKETVMLSCDYNTSTEELTSLRIYWQKDSKMVLAILPGKVQVWPEYKNRTITDMNDNPRIVILALRPSDSGTYTCVIQKPVLKGAYKLEHLASVRLMIRADFPVPTINDLGNPSPNIRRLICSTSGGFPRPHLYWLENGEELNATNTTVSQDPGTELYMISSELDFNVTNNHSIVCLIKYGELSVSQIFPWSKPKQEPPIDQLPFWVIIPVSGALVLTAVVLYCLACRHVARWKRTRRNEETVGTERLSPIYLGSAQSSG
For B1, the “T cell proliferation (3H-thymidine), transfected 293 HEK cells” value was roughly 3 fold.
